Patent publication US20230012273A1 (Boehringer Ingelheim, published 2023)

How the values were obtained:
[1] = molecular target: T1, full-length human SIRPαV1 (NP_542970.1) on cells (human, UniProt P78324 31-504); test: flow cytometry, competition with CD47 tetramer, monocytes V1V1
T1 construct: one molecule for CHO-K1 and Expi-CHO transfectants (NP_542970.1) and for endogenous V1 on U-937 cells and on CD14+ monocytes of V1/V1 donors; also called CHO-hSIRPαV1; αV1 WT
Description: Cells are washed, fixed, and analyzed by flow cytometry. Median fluorescent intensity of CD14+gated population is determined and used as a measure of CD47 binding.

[2] = molecular target: T1, full-length human SIRPαV1 (NP_542970.1) …; test: flow cytometry, CD14+ monocytes V1V1
Method in brief: (§1)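 PBMCs from donors homozygous for SIRPα V1 or V2 were blocked with donkey IgG and incubated on ice for 60 minutes with increasing antibody concentrations. Bound antibody detected with AF647 donkey F(ab′)₂ anti-human IgG. Median fluorescence intensity of CD14+ cells served as the binding measure.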

[3] = molecular target: T2, full-length human SIRPβL H→D on Expi-CHO cells (human, UniProt Q5TFQ8 30-398); test: flow cytometry, Expi-CHO cells
T2 construct: the entry already carries the change (PDHV to PDDV); also called βL WT H→D
Description: (§2) Expi-CHO parental cells are transduced with lentiviruses containing either full-length wild-type human SIRPβL (Q5TFQ8) or full-length human SIRPβL with a single amino acid point mutation (Table 62) and sorted to achieve matching expression levels. These cells are blocked with donkey IgG and incubated on ice with increasing concentrations of antibodies for 60 minutes, washed and stained with AF647-conjugated donkey F(ab′)₂ anti-human IgG antibodies. Stained cells are washed, fixed, and analyzed by flow cytometry. Median fluorescent intensity is determined and used as a measure of antibody binding.
A single amino acid substitution (H→D) introduced within the loop region maintained, strengthened, or facilitated antibody binding to these cells (FIG. 34B, Table 63).

[4] = molecular target: T3, full-length human SIRPαV2 D→E on Expi-CHO cells (human, UniProt P78324 31-504); test: flow cytometry, Expi-CHO cells
T3 construct: the entry already carries the change (SPDT to SPET)
Description: as §2, with “SIRPαV2 allele (CAA71403.1)” for “SIRPβL (Q5TFQ8)”, “SIRPαV2” for “SIRPβL”, “with” for “with a single”, “mutations” for “mutation”, “58)” for “62)”

[5] = molecular target: T4, full-length human SIRPαV2 E→N on Expi-CHO cells (human, UniProt P78324 31-504); test: flow cytometry, Expi-CHO cells
T4 construct: the entry already carries the change (TKRE to TKRN)
Description: as §2, with “SIRPαV2 allele (CAA71403.1)” for “SIRPβL (Q5TFQ8)”, “SIRPαV2” for “SIRPβL”, “with” for “with a single”, “mutations” for “mutation”, “58)” for “62)”

[6] = molecular target: T5, full-length human SIRPαV2 (CAA71403.1) on cells (human, UniProt P78324 31-504); test: flow cytometry, Expi-CHO cells
T5 construct: one molecule for CHO-K1 and Expi-CHO transfectants (CAA71403.1) and for endogenous V2 on THP-1 cells and on CD14+ monocytes of V2/V2 donors; also called CHO-hSIRPαV2; αV2 WT
Description: as §2, with “SIRPαV2 allele (CAA71403.1)” for “SIRPβL (Q5TFQ8)”, “SIRPαV2” for “SIRPβL”, “with” for “with a single”, “mutations” for “mutation”, “58)” for “62)”

[7] = molecular target: ED-tagged human SIRPα V2 receptor on Jurkat signaling reporter cells (human, UniProt P78324 31-504); test: cell-based or functional assay
[8] = molecular target: ED-tagged human SIRPα V1 receptor on Jurkat signaling reporter cells (human, UniProt P78324 31-504); test: cell-based or functional assay
[9] = molecular target: T5, full-length human SIRPαV2 (CAA71403.1) …; test: flow cytometry, CD14+ monocytes V2V2
Method in brief: as §1

[10] = molecular target: T5, full-length human SIRPαV2 (CAA71403.1) …; test: flow cytometry, CHO-K1 cells
Description: Antibody binding to cells expressing SIRPα is evaluated by flow cytometry. CHO-K1 parental cells (negative control), CHO-K1 cells expressing full-length human SIRPαV1 (NP_542970.1) or CHO-K1 cells expressing full-length human SIRPαV2 (CAA71403.1) are blocked with donkey IgG and incubated on ice with increasing concentrations of antibodies for 60 minutes, washed and stained with AF647-conjugated donkey F(ab′)₂ anti-human IgG secondary reagent. Cells are washed, fixed, and analyzed by flow cytometry. Median fluorescent intensity is determined and used as a measure of antibody binding.

[11] = molecular target: T6, full-length human SIRPβ1 D→H on Expi-CHO cells (human, UniProt O00241 30-398); test: flow cytometry, Expi-CHO cells expressing full-length human SIRPβ1 D→H
T6 construct: the entry already carries the change (PDDV to PDHV)
Description: These cells are blocked with donkey IgG and incubated on ice with increasing concentrations of antibodies for 60 minutes, washed and stained with AF647-conjugated donkey F(ab′)₂ anti-human IgG antibodies. Stained cells are washed, fixed, and analyzed by flow cytometry. Median fluorescent intensity is determined and used as a measure of antibody binding.

[12] = molecular target: T7, full-length human SIRPαV1 D→E on Expi-CHO cells (human, UniProt P78324 31-504); test: flow cytometry, Expi-CHO cells
T7 construct: the entry already carries the change (PDDV to PEDV)
Description: as §2, with “SIRPαV1 allele (NP_542970.1)” for “SIRPβL (Q5TFQ8)”, “SIRPαV1” for “SIRPβL”, “with” for “with a single”, “mutations” for “mutation”, “56)” for “62)”

[13] = molecular target: T8, full-length human SIRPαV1 N→E on Expi-CHO cells (human, UniProt P78324 31-504); test: flow cytometry, Expi-CHO cells
T8 construct: the entry already carries the change (TKRN to TKRE)
Description: as §2, with “SIRPαV1 allele (NP_542970.1)” for “SIRPβL (Q5TFQ8)”, “SIRPαV1” for “SIRPβL”, “with” for “with a single”, “mutations” for “mutation”, “56)” for “62)”

[14] = molecular target: T1, full-length human SIRPαV1 (NP_542970.1) …; test: flow cytometry, Expi-CHO cells
Description: as §2, with “SIRPαV1 allele (NP_542970.1)” for “SIRPβL (Q5TFQ8)”, “SIRPαV1” for “SIRPβL”, “with” for “with a single”, “mutations” for “mutation”, “56)” for “62)”

B1: Antibody E (antibody, human IgG1, kappa, L234A L235A)
heavy: not shown
light: DIVMTQSPLSLPVTPGEPASISCKSSQSLLYSNGYNYLDWYLQRPGQSPQLLIYLGSNRASGVPDRFSGSGSGTDFTLKISRVEAEDVGVFYCMQALQTPLTFGGGTKVEIKRTVAAPSVFIFPPSDEQLKSGTASVVCLLNNFYPREAKVQWKVDNALQSGNSQESVTEQDSKDSTYSLSSTLTLSKADYEKHKVYACEVTHQGLSSPVTKSFNRGEC
IC50 [1]: 0.09 nM | EC50 [2]: 0.4 nM | EC50 [3]: 0.5 nM | EC50 [4]: 0.3 nM | EC50 [5]: 0.3 nM | EC50 [6]: 0.3 nM | Blockade of Cellular CD47-Mediated SIRPα Signaling; IC50 (* Inhibition plateaus at <100%) [7]: 0.04 nM | Blockade of Cellular CD47-Mediated SIRPα Signaling; IC50 [8]: 0.04 nM | EC50 [9]: 0.7 nM | EC50 [10]: 0.9 nM | binding result [11]: no binding (tested: about 67 nM) | EC50 [12]: 0.4 nM | EC50 [13]: 0.5 nM | EC50 [14]: 0.5 nM
